Data taken from article PMC12478167.
pKd: −log10 of the molar value.

Legend:
[1] = target: sLilrB2, a soluble Fc-tagged form of LilrB2 containing the entire extracellular domain (human) (UniProt Q8N423); test: SPR
[2] = target: HA-PirB expressed in HEK293 cells (mouse) (UniProt P97484); test: immunostaining of cells or tissue
[3] = target: Myc-tagged LilrB2 expressed in HEK293 cells (human) (UniProt Q8N423); test: immunostaining of cells or tissue
[4] = target: endogenous PirB in mouse cortical neurons (mouse (endogenous in cortical neurons)) (UniProt P97484); test: immunostaining of cells or tissue

“C4d, terminal split product of complement component C4 (from UniProt P0C0L4 957-1336) (domain or fragment)” showed a pKd [1] of 8.52, a pKd [2] of 7.25 and a pKd [3] of 7.43. The pKd [4] was 6.42.
